In patent US20200368279 one finds activity data, which are given here for 8 sequences.

What all share (test): cell_activity
Data set [1] has as its system SBS75715 ZFN. As to conditions: pair with SBS75714, K562, 15 ug/mL mRNA; 84.0 at 3.75 ug/mL.
Data set [2] has as its system SBS75893 ZFN. As to conditions: pair with SBS75895, K562, 15 ug/mL mRNA; 76.6 at 3.75 ug/mL.
Data set [3] relates to SBS75609 ZFN. As to conditions: pair with SBS75606, K562, 15 ug/mL mRNA; 70.1 at 3.75 ug/mL.
In data set [4] the test system is SBS75606 ZFN. As to conditions: pair with SBS75609, K562, 15 ug/mL mRNA; 70.1 at 3.75 ug/mL.
For data set [5], the system named is SBS75714 ZFN. As to conditions: pair with SBS75715, K562, 15 ug/mL mRNA; 84.0 at 3.75 ug/mL.
Data set [6] has as its system SBS75591 ZFN. As to conditions: pair with SBS75592, K562, 15 ug/mL mRNA; 80.0 at 3.75 ug/mL.
In data set [7] the test system is SBS75895 ZFN. As to conditions: pair with SBS75893, K562, 15 ug/mL mRNA; 76.6 at 3.75 ug/mL.
In data set [8] the test system is SBS75592 ZFN. As to conditions: pair with SBS75591, K562, 15 ug/mL mRNA; 80.0 at 3.75 ug/mL.

With “GGACTCAGGTGGGGGGTCTAGGGGTGAG (double strand) [SBS75715 target]”, the activity in data set [1] was found to be 90.7 % indels.
As for “GGGCTAGGGCTGAAGTGAGGTGAAAGGT (double strand) [SBS75893 target]”, the activity in data set [2] was found to be 91.3 % indels.
“CTCCCCTGACCAAGGAAAATCGGGGTGG (double strand) [SBS75609 target]” registered an activity in data set [3] of 91.4 % indels.
“AAGGAGGTGCTCCTGGAATTACTTAGCA (double strand) [SBS75606 target]” yielded an activity in data set [4] of 91.4 % indels.
“AGGGATGGGATGACTTGGCTTTAGGTCA (double strand) [SBS75714 target]” returned an activity in data set [5] of 90.7 % indels.
“TCGGCCATCAGAAGGGAGGGACCCTGCT (double strand) [SBS75591 target]” showed an activity in data set [6] of 91.2 % indels.
For “AGGTTGGGAGTGGGGTCTTGTTCAGGGC (double strand) [SBS75895 target]”, the activity in data set [7] worked out at 91.3 % indels.
“GCTAAGTAATTCCAGGAGCACCTCCTTT (double strand) [SBS75592 target]”: in data set [8], the activity came to 91.2 % indels.
